Results: patent US6653282B1, “Peptide Compositions which induce immune tolerance and methods of use” (priority 1996, dated 2003)
Bridge positions count the residues as written; N and C are the ends. Square brackets hold non-standard residues; d marks the D form. Ends that are not written are not given here. Pen = CC(C)(S)[C@H](N)C(=O)O

B1: cLAB.2-L (peptide)
peptide: [Pen]GVDVDQDGETC
modifications: disulfide 1-12; not fully specified
B2: cLAB-C (peptide)
peptide: [Pen]DSGNIDAAKDC
modifications: disulfide 1-12; not fully specified
B3: LBE (peptide)
peptide: DLSYSLDDLRNVKKLGGDLLRALNE
B4: EBL (peptide)
peptide: ENLARLLDGGLKKVNRLDDLSYSLD
B5: cLAB-R (peptide)
peptide: [Pen]AKDIIYIIGIC
modifications: disulfide 1-12; not fully specified
B6: cLBE-L (peptide)
peptide: [Pen]DLSYSLDDLRC
modifications: disulfide 1-12; not fully specified
B7: LAB (peptide)
peptide: ITDGEATDSGNIDAAKDIIYIIGI
B8: cLAB-L (peptide)
peptide: XITDGEATDSGC
modifications: not fully specified; cyclic: disulfide bridge between the amino-terminal penicillamine (Xaa in the Sequence Listing) or cysteine and the carboxy-terminal cysteine
B9: LAB.2 (peptide)
peptide: GVDVDQDGETELIGAPLFYGEQRG
B10: cLBE-R (peptide)
peptide: [Pen]GGLLRALNEC
modifications: disulfide 1-11; not fully specified
B11: cLBE-C (peptide)
peptide: [Pen]DLRNVKKLGGC
modifications: disulfide 1-12; not fully specified
B12: cIB-C (peptide)
peptide: [Pen]PSKVILPRGGC
modifications: disulfide 1-12; not fully specified
B13: cIB-R (peptide)
peptide: CLPRGGSVLVTC
modifications: disulfide 1-12; not fully specified
B14: IE (peptide)
peptide: DQPKLLGIETPLPKKELLLPGNNRK
B15: cIB-L (peptide)
peptide: [Pen]QTSVSPSKVIC
modifications: disulfide 1-12; not fully specified
B16: IB (peptide)
peptide: QTSVSPSKVILPRGGSVLVTG
B17: cIE-C (peptide)
peptide: [Pen]ETPLPKKELLC
modifications: disulfide 1-12; not fully specified

Target: intercellular adhesion molecule (ICAM-1) (human, UniProt P05362 28-532)
Assay: cell-based or functional assay

Sequence of intercellular adhesion molecule (ICAM-1) (P05362 28-532): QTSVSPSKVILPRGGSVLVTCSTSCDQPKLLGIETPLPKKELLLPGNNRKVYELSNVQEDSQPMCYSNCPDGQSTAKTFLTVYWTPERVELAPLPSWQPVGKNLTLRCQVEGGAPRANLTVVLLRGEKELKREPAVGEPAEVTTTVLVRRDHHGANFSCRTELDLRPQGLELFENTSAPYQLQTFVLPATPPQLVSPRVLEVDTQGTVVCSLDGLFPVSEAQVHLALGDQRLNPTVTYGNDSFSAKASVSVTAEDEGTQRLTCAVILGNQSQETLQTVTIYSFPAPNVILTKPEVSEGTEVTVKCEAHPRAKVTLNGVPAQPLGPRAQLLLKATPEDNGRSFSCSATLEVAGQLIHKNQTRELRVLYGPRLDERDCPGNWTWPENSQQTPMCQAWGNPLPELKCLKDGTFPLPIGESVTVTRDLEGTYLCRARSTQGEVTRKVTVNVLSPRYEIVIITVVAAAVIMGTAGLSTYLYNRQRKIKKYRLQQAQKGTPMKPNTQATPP

Row | Clumping Index | Binder
1 | 50 clumping index (0-100) | B1
2 | 80 clumping index (0-100) | B2
3 | 73 clumping index (0-100) | B3
4 | 100 clumping index (0-100) | B4
5 | 77 clumping index (0-100) | B5
6 | 75 clumping index (0-100) | B6
7 | 75 clumping index (0-100) | B7
8 | 78 clumping index (0-100) | B8
9 | 48 clumping index (0-100) | B9
10 | 100 clumping index (0-100) | B10
11 | 82 clumping index (0-100) | B11

Target: leukocyte function-associated antigen (LFA-1) (human, UniProt P20701 26-1170; P05107 23-769)
Assay: cell-based or functional assay

Sequence of leukocyte function-associated antigen (LFA-1) (P20701 26-1170, chain 1 of 2): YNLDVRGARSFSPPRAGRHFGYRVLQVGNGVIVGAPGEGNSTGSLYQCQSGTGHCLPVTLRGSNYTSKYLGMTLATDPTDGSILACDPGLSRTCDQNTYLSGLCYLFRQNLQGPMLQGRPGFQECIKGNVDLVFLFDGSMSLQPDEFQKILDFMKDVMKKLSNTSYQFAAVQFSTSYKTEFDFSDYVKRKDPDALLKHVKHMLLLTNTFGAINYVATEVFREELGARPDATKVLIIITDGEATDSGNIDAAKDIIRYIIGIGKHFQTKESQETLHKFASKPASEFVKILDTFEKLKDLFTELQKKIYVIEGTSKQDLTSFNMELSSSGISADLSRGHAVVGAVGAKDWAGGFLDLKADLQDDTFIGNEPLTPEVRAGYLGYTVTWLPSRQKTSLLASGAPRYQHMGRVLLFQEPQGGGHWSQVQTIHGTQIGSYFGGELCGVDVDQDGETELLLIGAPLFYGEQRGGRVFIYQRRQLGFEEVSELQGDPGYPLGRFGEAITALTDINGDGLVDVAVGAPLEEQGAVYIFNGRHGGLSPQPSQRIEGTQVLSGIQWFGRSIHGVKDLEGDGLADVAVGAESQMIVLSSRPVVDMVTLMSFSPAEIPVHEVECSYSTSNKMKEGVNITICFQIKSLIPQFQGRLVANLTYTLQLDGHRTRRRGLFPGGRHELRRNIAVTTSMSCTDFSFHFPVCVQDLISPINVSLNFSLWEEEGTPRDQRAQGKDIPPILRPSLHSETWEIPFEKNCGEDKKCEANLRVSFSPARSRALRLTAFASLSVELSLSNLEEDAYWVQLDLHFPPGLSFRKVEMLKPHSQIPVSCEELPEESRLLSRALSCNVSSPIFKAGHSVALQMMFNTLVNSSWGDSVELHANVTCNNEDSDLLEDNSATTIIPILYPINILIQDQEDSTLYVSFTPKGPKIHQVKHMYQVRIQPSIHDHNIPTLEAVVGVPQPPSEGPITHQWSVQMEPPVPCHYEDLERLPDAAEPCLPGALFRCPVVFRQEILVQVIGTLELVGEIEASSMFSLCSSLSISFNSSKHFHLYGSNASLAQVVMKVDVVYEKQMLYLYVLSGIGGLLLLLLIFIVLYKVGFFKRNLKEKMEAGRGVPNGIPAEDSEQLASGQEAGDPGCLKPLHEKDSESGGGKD
Sequence of leukocyte function-associated antigen (LFA-1) (P05107 23-769, chain 2 of 2): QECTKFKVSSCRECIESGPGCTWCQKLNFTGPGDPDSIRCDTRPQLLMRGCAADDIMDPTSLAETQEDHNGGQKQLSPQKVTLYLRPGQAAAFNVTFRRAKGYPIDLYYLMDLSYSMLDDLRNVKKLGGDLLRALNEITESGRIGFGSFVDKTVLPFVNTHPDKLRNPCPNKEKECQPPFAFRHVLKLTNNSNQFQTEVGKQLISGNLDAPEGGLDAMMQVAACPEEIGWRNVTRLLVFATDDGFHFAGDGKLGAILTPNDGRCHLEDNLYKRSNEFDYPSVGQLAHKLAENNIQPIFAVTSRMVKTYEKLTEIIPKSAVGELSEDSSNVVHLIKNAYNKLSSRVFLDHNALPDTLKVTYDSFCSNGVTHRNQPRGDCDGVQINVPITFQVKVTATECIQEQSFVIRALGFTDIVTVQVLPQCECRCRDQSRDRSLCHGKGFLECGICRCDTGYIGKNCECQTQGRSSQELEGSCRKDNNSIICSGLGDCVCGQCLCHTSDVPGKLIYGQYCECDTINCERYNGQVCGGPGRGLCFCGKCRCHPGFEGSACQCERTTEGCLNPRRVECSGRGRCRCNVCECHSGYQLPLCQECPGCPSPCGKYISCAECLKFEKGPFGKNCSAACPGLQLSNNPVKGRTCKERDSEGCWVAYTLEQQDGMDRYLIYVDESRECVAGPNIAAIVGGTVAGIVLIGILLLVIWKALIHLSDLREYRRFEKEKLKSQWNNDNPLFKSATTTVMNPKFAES

Row | Clumping Index | Binder
12 | 61 clumping index (0-100) | B12
13 | 73 clumping index (0-100) | B13
14 | 63 clumping index (0-100) | B14
15 | 61 clumping index (0-100) | B15
16 | 56 clumping index (0-100) | B16
17 | 23 clumping index (0-100) | B17
